Values of other authors in paper PMC10148413.

Target: histone H3K4 methylated peptide (Homo sapiens) (UniProt P68431)

**Q.** For ASH1L PHD (from UniProt Q9NR48), which Kd is on record?
**A.** The Kd was 150 µM.
